Laboratory results taken from US20260263609A1 (NEW YORK UNIVERSITY, published 2026).

B1: Mb(NRAS_24) with the FG loop of SEQ ID NO: 15 (designed binder)
chain: VSSVPTKLEVVAATPTSLLISWDAPAVTVDFYVITYGETGGYAWAYQEFKVPGSKSTATISGLSPGVDYTITVYASQVIGAIWKYYSPISINYRT
notes: length of the loop entry not visible
B2: Mb(NRAS_24) with the FG loop of SEQ ID NO: 16 (designed binder)
chain: VSSVPTKLEVVAATPTSLLISWDAPAVTVDFYVITYGETGGYAWAYQEFKVPGSKSTATISGLSPGVDYTITVYAYHVIGAIWKYYSPISINYRT
notes: as for B1
B3: Mb(NRAS_24) with the FG loop of SEQ ID NO: 17 (designed binder)
chain: VSSVPTKLEVVAATPTSLLISWDAPAVTVDFYVITYGETGGYAWAYQEFKVPGSKSTATISGLSPGVDYTITVYAYQIDGAIWKYYSPISINYRT
notes: as for B1
B4: Mb(NRAS_24) with the FG loop of SEQ ID NO: 18 (designed binder)
chain: VSSVPTKLEVVAATPTSLLISWDAPAVTVDFYVITYGETGGYAWAYQEFKVPGSKSTATISGLSPGVDYTITVYAYQIEGAIWKYYSPISINYRT
notes: as for B1
B5: Mb(NRAS_24) with the FG loop of SEQ ID NO: 19 (designed binder)
chain: VSSVPTKLEVVAATPTSLLISWDAPAVTVDFYVITYGETGGYAWAYQEFKVPGSKSTATISGLSPGVDYTITVYAYQIHGAIWKYYSPISINYRT
notes: as for B1
B6: Mb(NRAS_24) with the FG loop of SEQ ID NO: 20 (designed binder)
chain: VSSVPTKLEVVAATPTSLLISWDAPAVTVDFYVITYGETGGYAWAYQEFKVPGSKSTATISGLSPGVDYTITVYAYQIKGAIWKYYSPISINYRT
notes: as for B1
B7: Mb(NRAS_24) with the FG loop of SEQ ID NO: 21 (designed binder)
chain: VSSVPTKLEVVAATPTSLLISWDAPAVTVDFYVITYGETGGYAWAYQEFKVPGSKSTATISGLSPGVDYTITVYAYQILGAIWKYYSPISINYRT
notes: as for B1
B8: Mb(NRAS_24) with the FG loop of SEQ ID NO: 22 (designed binder)
chain: VSSVPTKLEVVAATPTSLLISWDAPAVTVDFYVITYGETGGYAWAYQEFKVPGSKSTATISGLSPGVDYTITVYAYQIRGAIWKYYSPISINYRT
notes: as for B1
B9: Mb(NRAS_24) with the FG loop of SEQ ID NO: 23 (designed binder)
chain: VSSVPTKLEVVAATPTSLLISWDAPAVTVDFYVITYGETGGYAWAYQEFKVPGSKSTATISGLSPGVDYTITVYAYQIVGAIWKYYSPISINYRT
notes: as for B1
B10: Mb(NRAS_24) with the FG loop of SEQ ID NO: 24 (designed binder)
chain: VSSVPTKLEVVAATPTSLLISWDAPAVTVDFYVITYGETGGYAWAYQEFKVPGSKSTATISGLSPGVDYTITVYAYQIYGAIWKYYSPISINYRT
notes: as for B1
B11: Mb(NRAS_24) with the FG loop of SEQ ID NO: 25 (designed binder)
chain: VSSVPTKLEVVAATPTSLLISWDAPAVTVDFYVITYGETGGYAWAYQEFKVPGSKSTATISGLSPGVDYTITVYAYQLDGAIWKYYSPISINYRT
notes: as for B1
B12: Mb(NRAS_24) with the FG loop of SEQ ID NO: 26 (designed binder)
chain: VSSVPTKLEVVAATPTSLLISWDAPAVTVDFYVITYGETGGYAWAYQEFKVPGSKSTATISGLSPGVDYTITVYAYQLEGAIWKYYSPISINYRT
notes: as for B1
B13: Mb(NRAS_24) with the FG loop of SEQ ID NO: 27 (designed binder)
chain: VSSVPTKLEVVAATPTSLLISWDAPAVTVDFYVITYGETGGYAWAYQEFKVPGSKSTATISGLSPGVDYTITVYAYQLHGAIWKYYSPISINYRT
notes: as for B1
B14: Mb(NRAS_24) with the FG loop of SEQ ID NO: 28 (designed binder)
chain: VSSVPTKLEVVAATPTSLLISWDAPAVTVDFYVITYGETGGYAWAYQEFKVPGSKSTATISGLSPGVDYTITVYAYQLLGAIWKYYSPISINYRT
notes: as for B1
B15: Mb(NRAS_24) with the FG loop of SEQ ID NO: 29 (designed binder)
chain: VSSVPTKLEVVAATPTSLLISWDAPAVTVDFYVITYGETGGYAWAYQEFKVPGSKSTATISGLSPGVDYTITVYAYQLYGAIWKYYSPISINYRT
notes: as for B1
B16: Mb(NRAS_24) with the FG loop of SEQ ID NO: 30 (designed binder)
chain: VSSVPTKLEVVAATPTSLLISWDAPAVTVDFYVITYGETGGYAWAYQEFKVPGSKSTATISGLSPGVDYTITVYAYQTDGAIWKYYSPISINYRT
notes: as for B1
B17: Mb(NRAS_24) with the FG loop of SEQ ID NO: 31 (designed binder)
chain: VSSVPTKLEVVAATPTSLLISWDAPAVTVDFYVITYGETGGYAWAYQEFKVPGSKSTATISGLSPGVDYTITVYAYQTEGAIWKYYSPISINYRT
notes: as for B1
B18: Mb(NRAS_24) with the FG loop of SEQ ID NO: 32 (designed binder)
chain: VSSVPTKLEVVAATPTSLLISWDAPAVTVDFYVITYGETGGYAWAYQEFKVPGSKSTATISGLSPGVDYTITVYAYQTHGAIWKYYSPISINYRT
notes: as for B1
B19: Mb(NRAS_24) with the FG loop of SEQ ID NO: 33 (designed binder)
chain: VSSVPTKLEVVAATPTSLLISWDAPAVTVDFYVITYGETGGYAWAYQEFKVPGSKSTATISGLSPGVDYTITVYAYQTLGAIWKYYSPISINYRT
notes: as for B1
B20: Mb(NRAS_24) with the FG loop of SEQ ID NO: 34 (designed binder)
chain: VSSVPTKLEVVAATPTSLLISWDAPAVTVDFYVITYGETGGYAWAYQEFKVPGSKSTATISGLSPGVDYTITVYAYQTVGAIWKYYSPISINYRT
notes: as for B1
B21: Mb(NRAS_24) with the FG loop of SEQ ID NO: 35 (designed binder)
chain: VSSVPTKLEVVAATPTSLLISWDAPAVTVDFYVITYGETGGYAWAYQEFKVPGSKSTATISGLSPGVDYTITVYAYQTYGAIWKYYSPISINYRT
notes: as for B1
B22: Mb(NRAS_24) with the FG loop of SEQ ID NO: 36 (designed binder)
chain: VSSVPTKLEVVAATPTSLLISWDAPAVTVDFYVITYGETGGYAWAYQEFKVPGSKSTATISGLSPGVDYTITVYAYQVIAHIWKYYSPISINYRT
notes: as for B1
B23: Mb(NRAS_24) with the FG loop of SEQ ID NO: 37 (designed binder)
chain: VSSVPTKLEVVAATPTSLLISWDAPAVTVDFYVITYGETGGYAWAYQEFKVPGSKSTATISGLSPGVDYTITVYAYQVIASIWKYYSPISINYRT
notes: as for B1
B24: Mb(NRAS_24) with the FG loop of SEQ ID NO: 38 (designed binder)
chain: VSSVPTKLEVVAATPTSLLISWDAPAVTVDFYVITYGETGGYAWAYQEFKVPGSKSTATISGLSPGVDYTITVYAYQVIAYIWKYYSPISINYRT
notes: as for B1
B25: Mb(NRAS_24) with the FG loop of SEQ ID NO: 39 (designed binder)
chain: VSSVPTKLEVVAATPTSLLISWDAPAVTVDFYVITYGETGGYAWAYQEFKVPGSKSTATISGLSPGVDYTITVYAYQVIDHIWKYYSPISINYRT
notes: as for B1
B26: Mb(NRAS_24) with the FG loop of SEQ ID NO: 40 (designed binder)
chain: VSSVPTKLEVVAATPTSLLISWDAPAVTVDFYVITYGETGGYAWAYQEFKVPGSKSTATISGLSPGVDYTITVYAYQVIDSIWKYYSPISINYRT
notes: as for B1
B27: Mb(NRAS_24) with the FG loop of SEQ ID NO: 41 (designed binder)
chain: VSSVPTKLEVVAATPTSLLISWDAPAVTVDFYVITYGETGGYAWAYQEFKVPGSKSTATISGLSPGVDYTITVYAYQVIDYIWKYYSPISINYRT
notes: as for B1
B28: Mb(NRAS_24) with the FG loop of SEQ ID NO: 42 (designed binder)
chain: VSSVPTKLEVVAATPTSLLISWDAPAVTVDFYVITYGETGGYAWAYQEFKVPGSKSTATISGLSPGVDYTITVYAYQVIEHIWKYYSPISINYRT
notes: as for B1
B29: Mb(NRAS_24) with the FG loop of SEQ ID NO: 43 (designed binder)
chain: VSSVPTKLEVVAATPTSLLISWDAPAVTVDFYVITYGETGGYAWAYQEFKVPGSKSTATISGLSPGVDYTITVYAYQVIESIWKYYSPISINYRT
notes: as for B1
B30: Mb(NRAS_24) with the FG loop of SEQ ID NO: 44 (designed binder)
chain: VSSVPTKLEVVAATPTSLLISWDAPAVTVDFYVITYGETGGYAWAYQEFKVPGSKSTATISGLSPGVDYTITVYAYQVIEYIWKYYSPISINYRT
notes: as for B1
B31: Mb(NRAS_24) with the FG loop of SEQ ID NO: 45 (designed binder)
chain: VSSVPTKLEVVAATPTSLLISWDAPAVTVDFYVITYGETGGYAWAYQEFKVPGSKSTATISGLSPGVDYTITVYAYQVIGAICKYYSPISINYRT
notes: as for B1
B32: Mb(NRAS_24) with the FG loop of SEQ ID NO: 46 (designed binder)
chain: VSSVPTKLEVVAATPTSLLISWDAPAVTVDFYVITYGETGGYAWAYQEFKVPGSKSTATISGLSPGVDYTITVYAYQVIGALWKYYSPISINYRT
notes: as for B1
B33: Mb(NRAS_24) with the FG loop of SEQ ID NO: 47 (designed binder)
chain: VSSVPTKLEVVAATPTSLLISWDAPAVTVDFYVITYGETGGYAWAYQEFKVPGSKSTATISGLSPGVDYTITVYAYQVIHHIWKYYSPISINYRT
notes: as for B1
B34: Mb(NRAS_24) with the FG loop of SEQ ID NO: 48 (designed binder)
chain: VSSVPTKLEVVAATPTSLLISWDAPAVTVDFYVITYGETGGYAWAYQEFKVPGSKSTATISGLSPGVDYTITVYAYQVIHSIWKYYSPISINYRT
notes: as for B1
B35: Mb(NRAS_24) with the FG loop of SEQ ID NO: 49 (designed binder)
chain: VSSVPTKLEVVAATPTSLLISWDAPAVTVDFYVITYGETGGYAWAYQEFKVPGSKSTATISGLSPGVDYTITVYAYQVIHYIWKYYSPISINYRT
notes: as for B1
B36: Mb(NRAS_24) with the FG loop of SEQ ID NO: 50 (designed binder)
chain: VSSVPTKLEVVAATPTSLLISWDAPAVTVDFYVITYGETGGYAWAYQEFKVPGSKSTATISGLSPGVDYTITVYAYQVIKHIWKYYSPISINYRT
notes: as for B1
B37: Mb(NRAS_24) with the FG loop of SEQ ID NO: 51 (designed binder)
chain: VSSVPTKLEVVAATPTSLLISWDAPAVTVDFYVITYGETGGYAWAYQEFKVPGSKSTATISGLSPGVDYTITVYAYQVIKSIWKYYSPISINYRT
notes: as for B1
B38: Mb(NRAS_24) with the FG loop of SEQ ID NO: 52 (designed binder)
chain: VSSVPTKLEVVAATPTSLLISWDAPAVTVDFYVITYGETGGYAWAYQEFKVPGSKSTATISGLSPGVDYTITVYAYQVIKYIWKYYSPISINYRT
notes: as for B1

Biological target: T1, NRAS (human, UniProt P01111 1-174, limits assumed)
T1 construct: also called Neuroblastoma-RAS; NRAS (WT)
Test: yeast display, cells sorted for binding to NRAS (WT);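 note: Yeast-displayed monobody variants with one or two residue substitutions, monobody sequences read from cells recovered by sorting for binding to wild-type NRAS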

| Binder | binding result |
| --- | --- |
| B1 | binds |
| B2 | binds |
| B3 | binds |
| B4 | binds |
| B5 | binds |
| B6 | binds |
| B7 | binds |
| B8 | binds |
| B9 | binds |
| B10 | binds |
| B11 | binds |
| B12 | binds |
| B13 | binds |
| B14 | binds |
| B15 | binds |
| B16 | binds |
| B17 | binds |
| B18 | binds |
| B19 | binds |

| Binder | binding result |
| --- | --- |
| B20 | binds |
| B21 | binds |
| B22 | binds |
| B23 | binds |
| B24 | binds |
| B25 | binds |
| B26 | binds |
| B27 | binds |
| B28 | binds |
| B29 | binds |
| B30 | binds |
| B31 | binds |
| B32 | binds |
| B33 | binds |
| B34 | binds |
| B35 | binds |
| B36 | binds |
| B37 | binds |
| B38 | binds |
